Results on three molecules are retold here after patent US20250002610A1 (Genmab, published 2025).

Assay [1] addresses T1, human DR4 (Death Receptor 4), cell surface expressed on human tumor cell lines (human, UniProt O00220 24-468).
T1 construct: also called TNFRSF10A; TRAIL-R1
T1 sequence: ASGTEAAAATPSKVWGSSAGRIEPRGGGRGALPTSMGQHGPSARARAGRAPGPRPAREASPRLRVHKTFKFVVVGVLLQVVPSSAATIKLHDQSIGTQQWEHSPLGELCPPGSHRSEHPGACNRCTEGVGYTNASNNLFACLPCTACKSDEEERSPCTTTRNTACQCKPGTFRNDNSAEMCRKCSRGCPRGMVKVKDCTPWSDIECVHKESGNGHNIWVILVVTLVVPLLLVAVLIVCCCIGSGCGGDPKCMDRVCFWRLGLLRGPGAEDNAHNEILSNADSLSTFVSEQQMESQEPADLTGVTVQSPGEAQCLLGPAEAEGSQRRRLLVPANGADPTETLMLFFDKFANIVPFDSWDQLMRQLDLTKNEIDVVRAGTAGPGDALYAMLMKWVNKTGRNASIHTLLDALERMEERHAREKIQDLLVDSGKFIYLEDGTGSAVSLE
The experiment in a line: flow cytometry, DLD-1 cells, n = 3. (A flow cytometer gives signals particle by particle.)

Assay [2] addresses T1, human DR4 (Death Receptor 4), cell …. The experiment in a line: flow cytometry, DLD-1 cells, n = 2.
For assay [3], the target named is T2, human FAPα (Fibroblast activation protein alpha), cell surface expressed (human, UniProt Q12884 1-760).
T2 construct: Endogenous on human lung fibroblasts and CAFs
T2 sequence: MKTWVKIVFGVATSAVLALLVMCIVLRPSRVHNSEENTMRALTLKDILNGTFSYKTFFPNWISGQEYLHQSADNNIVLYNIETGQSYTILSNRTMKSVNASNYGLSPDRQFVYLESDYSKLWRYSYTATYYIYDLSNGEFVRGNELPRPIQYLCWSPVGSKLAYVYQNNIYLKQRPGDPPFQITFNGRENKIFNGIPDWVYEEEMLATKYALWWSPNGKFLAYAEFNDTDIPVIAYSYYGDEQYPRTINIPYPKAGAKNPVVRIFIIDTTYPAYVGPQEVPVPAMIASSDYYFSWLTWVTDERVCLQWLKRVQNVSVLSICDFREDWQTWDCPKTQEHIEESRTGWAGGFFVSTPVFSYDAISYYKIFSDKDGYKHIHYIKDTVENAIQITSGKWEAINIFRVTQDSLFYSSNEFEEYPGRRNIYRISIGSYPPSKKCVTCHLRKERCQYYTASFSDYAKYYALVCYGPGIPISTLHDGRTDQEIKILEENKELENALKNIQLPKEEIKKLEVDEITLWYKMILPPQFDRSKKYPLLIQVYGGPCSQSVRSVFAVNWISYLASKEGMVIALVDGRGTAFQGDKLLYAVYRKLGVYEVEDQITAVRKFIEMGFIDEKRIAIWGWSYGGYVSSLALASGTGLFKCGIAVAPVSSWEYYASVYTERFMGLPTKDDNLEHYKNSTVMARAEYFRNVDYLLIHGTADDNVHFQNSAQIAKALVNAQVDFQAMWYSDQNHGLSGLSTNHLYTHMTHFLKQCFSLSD
The experiment in a line: flow cytometry, Expi293F cells expressing human FAPα, average ± SEM. The protocol:
(§1) Binding of BisG1-FAPα-FERL/DR4-FERR, BisG1-FAPα-FEAL/b12-FEAR and IgG1-FAPα-FERL to FAPα of species commonly used for nonclinical toxicology studies was assessed by flow cytometry using Expi293F cells transiently expressing FAPα from different animal species. IgG1-b12 was included as negative control.
(§2) Expi293F cells expressing recombinant FAPα from various species (human, cynomolgus monkey, dog, pig, rat or mouse) were seeded (20,000 cells/well) in 96-Well round bottom plates (Greiner Bio-one, Cat #650101). Antibody dilutions were prepared using FACS buffer, consisting of PBS (Capricorn Scientific, Cat #PBS-10XA, diluted to 1×PBS in distilled water)+1% BSA (Roche, Cat #10735086001)+0.02% Sodium Azide (Bio-World, Cat #41920044-3). Plates were centrifuged, supernatant was removed, and cells were resuspended in 100 μL of antibody dilutions (concentration range 30-0.00017 μg/mL with three-fold serial dilutions using FACS buffer) of BisG1-FAPα-FERL/DR4-FERR, BisG1-FAPα-FEAL/b12-FEAR, IgG1-FAPα-FERL and IgG1-b12 and incubated for 30 min at 4° C. […] After 30 min incubation at 4° C., cells were washed with FACS buffer and resuspended in FACS buffer supplemented with TO-PRO-3 Iodide viability marker (Invitrogen, Cat #T3605, diluted 1:4,000). Antibody binding to viable cells (gMFI of PE on TO-PRO-3 negative cells) was analyzed by flow cytometry on a FACS Celesta and FACS_Diva software (first two experiments) or iQue® 3 and FlowJo software (last experiment). gMFI was determined and visualized using GraphPad Prism. Binding curves were analyzed using nonlinear regression analysis. The concentration (pg/mL) at which 50% of the maximal effect was observed (EC₅₀) was derived from the fitted curves.

In assay [4] the target is T3, pig FAPα on Expi293F cells (pig (Sus scrofa), UniProt A5D7B7 1-760 (bovine entry)).
T3 chain: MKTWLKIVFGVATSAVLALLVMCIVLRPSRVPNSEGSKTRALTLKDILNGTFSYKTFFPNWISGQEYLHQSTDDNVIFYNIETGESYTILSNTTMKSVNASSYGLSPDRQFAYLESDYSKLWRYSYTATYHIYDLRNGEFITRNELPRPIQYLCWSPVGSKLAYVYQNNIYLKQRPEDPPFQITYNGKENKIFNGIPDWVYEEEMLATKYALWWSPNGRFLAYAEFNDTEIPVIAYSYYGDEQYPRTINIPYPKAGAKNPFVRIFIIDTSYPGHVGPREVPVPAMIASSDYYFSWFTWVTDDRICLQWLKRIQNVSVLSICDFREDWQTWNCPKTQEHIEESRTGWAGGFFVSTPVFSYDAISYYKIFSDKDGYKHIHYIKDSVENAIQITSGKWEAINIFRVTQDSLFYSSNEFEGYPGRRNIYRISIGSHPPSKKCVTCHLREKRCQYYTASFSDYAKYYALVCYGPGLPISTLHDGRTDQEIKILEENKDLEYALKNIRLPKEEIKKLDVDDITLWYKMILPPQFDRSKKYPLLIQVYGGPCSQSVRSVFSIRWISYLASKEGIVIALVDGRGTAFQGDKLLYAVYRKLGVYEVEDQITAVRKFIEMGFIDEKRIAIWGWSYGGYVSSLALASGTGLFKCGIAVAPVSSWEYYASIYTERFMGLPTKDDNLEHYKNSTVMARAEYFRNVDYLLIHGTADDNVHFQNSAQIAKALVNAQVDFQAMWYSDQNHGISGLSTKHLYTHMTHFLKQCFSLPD
The experiment in a line: flow cytometry on Expi293F cells transiently expressing pig FAPα, gMFI PE. The protocol: as §1, §2

B1: IgG1-DR4-FERR (antibody, V domains shown)
VH: QVQLQESGPGLVKPSGTLSLTCAVSGGSISSYSWWSWIRQPPGKGLEWIGELYHSGSTNYNPSLKSRVTISVDKSKNQFSLKLRSVTAADTAVYYCVRGVATIDYWGQGTLVTVSS
VL: QSALTQPPSASGSPGQSVTISCTGTSSDVGGYNFVSWYQQDPGKAPKLLIYEVTKRPSGVPDRFSGSKSGNTASLTVSGLQAEDEADYYCSSYAGSNNVMFGGGTKLTVLG
notes: Bivalent monoclonal IgG1 lambda
With B1, the EC50 stood at 0.23 µg/mL in assay [1] and 0.22 µg/mL in assay [2].

B2: BisG1-FAPα-FEAL/b12-FEAR (bispecific antibody, human IgG1, kappa)
heavy 1: EVQLLESGGGLVQPGGSPRLSCEASGFTFSSYALSWVRQAPGKGLEWVSAISGSGGGRYYADSVKGRFTISRDNSKNTLFLQMNSLRAEDTAVYYCAKEGYSSSGTYWDHWGQGTLVTVSSASTKGPSVFPLAPSSKSTSGGTAALGCLVKDYFPEPVTVSWNSGALTSGVHTFPAVLQSSGLYSLSSVVTVPSSSLGTQTYICNVNHKPSNTKVDKRVEPKSCDKTHTCPPCPAPEFEGGPSVFLFPPKPKDTLMISRTPEVTCVVVAVSHEDPEVKFNWYVDGVEVHNAKTKPREEQYNSTYRVVSVLTVLHQDWLNGKEYKCKVSNKALPAPIEKTISKAKGQPREPQVYTLPPSREEMTKNQVSLTCLVKGFYPSDIAVEWESNGQPENNYKTTPPVLDSDGSFLLYSKLTVDKSRWQQGNVFSCSVMHEALHNHYTQKSLSLSPG
light 1: AIQMTQSPSSVSASVGDRVTITCRASQGVSSWLAWYQQKPGRAPKLLIYVASTLQSGVPSRFSGSGSGTDFTLTINSLQPEDFATYYCQQANSFPPTFGQGTRLEMKRTVAAPSVFIFPPSDEQLKSGTASVVCLLNNFYPREAKVQWKVDNALQSGNSQESVTEQDSKDSTYSLSSTLTLSKADYEKHKVYACEVTHQGLSSPVTKSFNRGEC
heavy 2: QVQLVQSGAEVKKPGASVKVSCQASGYRFSNFVIHWVRQAPGQRFEWMGWINPYNGNKEFSAKFQDRVTFTADTSANTAYMELRSLRSADTAVYYCARVGPYSWDDSPQDNYYMDVWGKGTTVIVSSASTKGPSVFPLAPSSKSTSGGTAALGCLVKDYFPEPVTVSWNSGALTSGVHTFPAVLQSSGLYSLSSVVTVPSSSLGTQTYICNVNHKPSNTKVDKRVEPKSCDKTHTCPPCPAPEFEGGPSVFLFPPKPKDTLMISRTPEVTCVVVAVSHEDPEVKFNWYVDGVEVHNAKTKPREEQYNSTYRVVSVLTVLHQDWLNGKEYKCKVSNKALPAPIEKTISKAKGQPREPQVYTLPPSREEMTKNQVSLTCLVKGFYPSDIAVEWESNGQPENNYKTTPPVLDSDGSFFLYSRLTVDKSRWQQGNVFSCSVMHEALHNHYTQKSLSLSPG
light 2: EIVLTQSPGTLSLSPGERATFSCRSSHSIRSRRVAWYQHKPGQAPRLVIHGVSNRASGISDRFSGSGSGTDFTLTITRVEPEDFALYYCQVYGASSYTFGQGTKLERKRTVAAPSVFIFPPSDEQLKSGTASVVCLLNNFYPREAKVQWKVDNALQSGNSQESVTEQDSKDSTYSLSSTLTLSKADYEKHKVYACEVTHQGLSSPVTKSFNRGEC
notes: Fab-arm exchange of IgG1-FAPα-FEAL and IgG1-b12-FEAR
Take B2: the EC50 in assay [3] amounted to 0.3 µg/mL. Further, the binding result in assay [4] is “binds”.

B3: IgG1-FAPα-FERL (antibody)
heavy: EVQLLESGGGLVQPGGSPRLSCEASGFTFSSYALSWVRQAPGKGLEWVSAISGSGGGRYYADSVKGRFTISRDNSKNTLFLQMNSLRAEDTAVYYCAKEGYSSSGTYWDHWGQGTLVTVSSASTKGPSVFPLAPSSKSTSGGTAALGCLVKDYFPEPVTVSWNSGALTSGVHTFPAVLQSSGLYSLSSVVTVPSSSLGTQTYICNVNHKPSNTKVDKRVEPKSCDKTHTCPPCPAPEFERGPSVFLFPPKPKDTLMISRTPEVTCVVVDVSHEDPEVKFNWYVDGVEVHNAKTKPREEQYNSTYRVVSVLTVLHQDWLNGKEYKCKVSNKALPAPIEKTISKAKGQPREPQVYTLPPSREEMTKNQVSLTCLVKGFYPSDIAVEWESNGQPENNYKTTPPVLDSDGSFLLYSKLTVDKSRWQQGNVFSCSVMHEALHNHYTQKSLSLSPG
light: AIQMTQSPSSVSASVGDRVTITCRASQGVSSWLAWYQQKPGRAPKLLIYVASTLQSGVPSRFSGSGSGTDFTLTINSLQPEDFATYYCQQANSFPPTFGQGTRLEMKRTVAAPSVFIFPPSDEQLKSGTASVVCLLNNFYPREAKVQWKVDNALQSGNSQESVTEQDSKDSTYSLSSTLTLSKADYEKHKVYACEVTHQGLSSPVTKSFNRGEC
notes: Bivalent monoclonal IgG1 kappa
Consider B3, for which the EC50 in assay [3] turned out to be 0.18 µg/mL. Besides, the “EC50 (read off the curve)” value in assay [4] was roughly 0.3 µg/mL.

By EC50 is commonly meant the concentration at which the effect is half-maximal. Higher therefore signals weaker potency. The term EC50 (read off the curve) denotes the concentration needed to bring the measured effect to its halfway point.
